# Measured values published in publication PMC4022583.
# Target: fluorescein labelled MPT peptide (UniProt P35579)
# Experiment: fluorescence polarisation; S100A4 variant and fluorescein labelled MPT peptide
row,Kd [nM],Substance
1,0.28,"S100A4 C-terminal deletion mutant (residues 1-88, Δ13) (from UniProt P26447 1-88) (domain or fragment)"
2,0.12,wild-type S100A4 (from UniProt P26447 1-101) (natural protein)
